The record followed here is patent US20250250357A1 (NANJING ZAIMING PHARMACEUTICAL, published 2025).

B1: S009-F8-4.5 (antibody, human IgG1, kappa, V domains shown)
VH: QVQLQQPGAELVKPGASVKLSCKASGYTFTIYWMHWVKQRPGQGLEWIGMIHPNSGNTNYNEKFKSKATLTVDKSSSTAYMQLSSLTSEDSAVYYCSLIHWYFDVWGTGTTVTVSS
VL: QIVLTQSPAIMSASPGEKVTMTCSASSSVSYMYWYQQKPGSSPRLLIYDTSNLASGVPVRFSGSGSGTSYSLTISRMEAEDAATYYCQQWSSYPLTFGAGTKLELKR
notes: human-murine chimeric antibody, human IgG1/kappa constant regions
B2: S009-F8-27.1 (antibody, human IgG1, kappa, V domains shown)
VH: EVQLVESGGGLVKPGGSLKLSCAASGFTFSSYAMSWVRQTPEKRLEWVATISDGGNYTYYPDNVKGRFTISRDNAKNNLYLQMSHLKSEDTAMYYCAGDRGYPYAMDSWGQGTSVTVSS
VL: NIMMTQSPSSLAVSAGEKVTMSCKSSQSVLYSSNQKNYLAWYQQKPGQSPKLLIYWASTRESGVPDRFTGSGSGTDFTLTISNVHAEDLAVYYCHQYLSSLTFGAGTKLELKR
notes: as for B1
B3: S009-F8-7.5 (antibody, human IgG1, kappa, V domains shown)
VH: DVQLQESGPGLVKPSQSLSLTCSVTGYSITSGYYWNWIRQFPGNKLEWMAYIRYDGSNNYNPSLKNRISIIRDTSKNQFFLRLNSVTTEDTATYYCAKSYYGMDDWGQGISVTVSS
VL: DIQMTQSPASLSASVGETVTITCRTSGDIHNYLAWYQQKQGKSPQLLVYKAKTLENGVPSRFTGSGSGTQFSLKIDSLQPEDFGTYYCQHFWTTPYTFGGGTKLEIKR
notes: as for B1
B4: S009-F8-18.9 (antibody, human IgG1, kappa, V domains shown)
VH: EFQLQQSGPELVKPGASVKISCKASGYSFTDYNMNWVKQSNGKSLEWIGIINPNYGTTSYNQKFKGRATLTVDQSSSTAYVQLNSLTSEDSAVYYCARGGYDNEAMDYWGQGTSVTVSS
VL: QIVLTQSPAIMSASPGEKVTMTCSASSSVSYMHWYQQKSGTSPKRWIYDTSKLASGVPARFSGSGSGTSYSLTISSMEAEDAATYYCQQWSSNPPTFGAGTKLELKR
notes: as for B1
B5: S009-F8-19.21 (antibody, human IgG1, kappa, V domains shown)
VH: B4 VH with A24T, I50V, S59G, R67K, V81M, N103G, Q111H
VL: B4 VL with S30N, N93Y, A99G, L105I
notes: as for B1
B6: S009-F8-12.13 (antibody, human IgG1, kappa, V domains shown)
VH: QVQLQQPGAELVKPGASVKLSCKASGYTFTSYWMHWVKQRPGQGLEWIGMIHPNSGSTNYNEKFKSKATLTVDKSSSTAYMQLSSLTSEDSAVYYCARRTPIITLVGHWYFDVWGTGTTVTVSS
VL: DIVMTQSHKFMSTSVGDRVSITCKASQDVGTAVAWYQQKPGQSPKLLIYWASTRHTGVPDRFTGSGSGTDFTLTISNVQSEDLADYFCQQYSSYPLTFGAGTKLELKR
notes: as for B1

Changes are numbered by the printed parent chain.
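For Kd in this document: flow cell at 25 °C, antigen injected for 240 s at five concentrations from 200 nM downward, dissociation followed up to 600 s, double-referenced, fitted with Langmuir 1:1 model.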
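For koff in this document: flow cell at 25 °C, antigen injected for 240 s at five concentrations from 200 nM downward, dissociation followed up to 600 s, double-referenced, fitted with Langmuir 1:1 model.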
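For kon in this document: flow cell at 25 °C, antigen injected for 240 s at five concentrations from 200 nM downward, dissociation followed up to 600 s, double-referenced, fitted with Langmuir 1:1 model.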

T1 sequence (Q13421 other isoform, or with tags, fused parts or gaps): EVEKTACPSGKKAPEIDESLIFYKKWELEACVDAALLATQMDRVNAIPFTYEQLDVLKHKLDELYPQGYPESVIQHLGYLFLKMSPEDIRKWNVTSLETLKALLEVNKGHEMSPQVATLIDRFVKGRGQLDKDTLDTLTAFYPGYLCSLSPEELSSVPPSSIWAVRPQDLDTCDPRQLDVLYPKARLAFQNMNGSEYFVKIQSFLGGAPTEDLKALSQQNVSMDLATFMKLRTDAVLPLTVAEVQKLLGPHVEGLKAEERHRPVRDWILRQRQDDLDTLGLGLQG

The first assay addresses T1, human MSLN-FL-his protein (human, UniProt Q13421 296-580).
T1 construct: made in HEK293E cells, purified on nickel column; also called hMSLN-FL-his; human MSLN full-length protein; not shown: His tag
As to the kind of experiment: competitive ELISA; row F8-5.15. In general terms: In an ELISA, binding on a coated surface is turned into a signal by an enzyme label.
As to B1, the competition rate is 100%.
The same measure, in the same setting: under B2 stands 99.8%; under B3, 83.3%.
On the same count and under the same terms, under B4 stands 99.7%; under B5, 99.5%.
For B6, the competition rate was 99.3%.

A further assay concerns the target T1, human MSLN-FL-his protein. As to the kind of experiment: competitive ELISA; row Tab021.
Description: (§1) In order to identify antigen-binding sites of antibodies, MSLN chimeric antibodies were grouped using competitive ELISA.
(§2) The chimeric antibodies were diluted to 2 μg/mL with PBS and allowed to coat 96-well high-adsorption ELISA plates at 50 μL/well. After the plates were coated at 4° C. overnight, 250 μL of a blocking buffer (PBS containing 2% (w/w) BSA) was added for two hours of blocking at room temperature. 40 μg/mL of the antibodies to be tested were added, and then the human MSLN-FL-His protein with an EC₈₀ concentration corresponding to each of the antibodies to be tested was added for incubation for 2 h. The plates were washed 5 times with PBS, an HRP-labeled anti-His secondary antibody (purchased from Genescript, Cat. No. A00612) was then added for incubation for 1 h, and the plates were washed 5 times again. A TMB substrate was added at 50 μL/well, and after 10 minutes of incubation at room temperature, a stop solution (1.0 M HCl) was added at 50 μL/well. OD₄₅₀ nm values were read using an ELISA plate reader (Insight, purchased from PerkinElmer), and the competition rate between the antibodies was calculated according to the OD₄₅₀ nm values using a formula.
Take B1: the competition rate came to 9.76%.
As to B2, the competition rate was 12.2%.
Still for that read-out and setting: with B3 the figure was 14.2%; with B4, 2.63%.
On the same count and under the same terms, under B5 stands 4.93%.
The same measure, in the same setting: under B6 stands 6.56%.

The next assay deals with T1, human MSLN-FL-his protein. Description: competitive ELISA; row F8-4.5.
Description: as §1, §2
Consider B1, for which the competition rate turned out to be 97.5%.
On the same count and under the same terms, under B2 stands 92%; under B3, 3.24%.
As for B4, the competition rate is 83.3%.
Still for that read-out and setting: with B5 the figure was 89.7%.
On the same count and under the same terms, under B6 stands 88.2%.

A further assay concerns the target T1, human MSLN-FL-his protein. Description: competitive ELISA; row F8-19.21.
Description: as §1, §2
For the molecule B1, the competition rate was 98.9%.
As for B2, the competition rate turned out to be 90.2%.
On to B3, for which the competition rate was determined as 14.7%.
The same measure, in the same setting: with B4 the figure was 91.3%.
Same read-out and setting: under B5 stands 95.4%; under B6, 75.9%.

In a further assay the target is T1, human MSLN-FL-his protein. As to the kind of experiment: competitive ELISA; row F8-27.1.
Description: as §1, §2
B1: the competition rate was 99.8%.
The same measure, in the same setting: with B2 the figure was 95.3%; with B3, 3.35%; with B4, 96.8%.
Same read-out and setting: under B5 stands 98.4%.
In the case of B6, the competition rate stood at 93.5%.

The target of the next assay is T1, human MSLN-FL-his protein. Description: competitive ELISA; row Tab142.
Description: as §1, §2
For B1, the competition rate turned out to be 97.8%.
Still for that read-out and setting: with B2 the figure was 86.2%; with B3, 2.16%.
Take B4: the competition rate turned out to be 85.5%.
Same read-out and setting: under B5 stands 92.2%.
On the same count and under the same terms, under B6 stands 65.5%.

A further assay concerns the target T1, human MSLN-FL-his protein. Description: competitive ELISA; row F8-13.8.
Description: as §1, §2
B1: the competition rate came to 95.8%.
Still for that read-out and setting: with B2 the figure was 74.6%; with B3, 3.15%.
Same read-out and setting: with B4 the figure was 77.5%; with B5, 82%.
On the same count and under the same terms, with B6 the figure was 51.1%.

A further assay addresses T1, human MSLN-FL-his protein. As to the kind of experiment: competitive ELISA; row F8-7.5.
Description: as §1, §2
With B1, the competition rate came out at 23.6%.
As for B2, the competition rate was -9.43%.
For the molecule B3, the competition rate amounted to 85.8%.
On the same count and under the same terms, with B4 the figure was -116%.
For the molecule B5, the competition rate was -137%.
Still for that read-out and setting: with B6 the figure was -135%.

The target of another assay is T1, human MSLN-FL-his protein. Description: competitive ELISA; row F8-31.22.
Description: as §1, §2
Regarding B1, the competition rate turned out to be 89.7%.
Same read-out and setting: with B2 the figure was -13.1%.
B3: the competition rate is -71.5%.
Still for that read-out and setting: under B4 stands 98%; under B5, 98.5%; under B6, 92.2%.

In another assay the target is T1, human MSLN-FL-his protein. Description: competitive ELISA; row F8-18.9.
Description: as §1, §2
For the molecule B1, the competition rate was 8.32%.
Same read-out and setting: under B2 stands -2.77%; under B3, 11.2%; under B4, 6.6%.
The same measure, in the same setting: with B5 the figure was 6.96%; with B6, 10.1%.

In the next assay the target is T2, human MSLN protein endogenously expressed on OVCAR3 tumor cells (human, UniProt Q13421 296-598).
T2 construct: whole, on cells; endogenous expression on a tumor cell line; also called human mesothelin
T2 sequence (Q13421 other isoform, or with tags, fused parts or gaps): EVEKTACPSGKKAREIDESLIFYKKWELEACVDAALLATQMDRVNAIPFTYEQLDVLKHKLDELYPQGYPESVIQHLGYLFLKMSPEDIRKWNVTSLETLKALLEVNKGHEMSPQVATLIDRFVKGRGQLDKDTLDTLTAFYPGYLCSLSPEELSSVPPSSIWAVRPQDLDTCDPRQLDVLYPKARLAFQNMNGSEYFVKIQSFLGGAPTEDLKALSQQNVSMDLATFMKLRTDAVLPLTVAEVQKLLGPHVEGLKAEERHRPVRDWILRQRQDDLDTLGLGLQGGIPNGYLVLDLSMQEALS
Description: FACS on OVCAR3 cells.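 Also: flow cytometry of chimeric antibody binding to OVCAR3 cells, 2 h on ice, read as cellular mean fluorescence intensity.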
Description: The desired cells were expanded to the logarithmic growth phase in a T-75 cell culture flask. […] After the cells from the previous step were subjected to cell counting, the cell pellet was resuspended to 2×10⁶ cells/mL in a blocking buffer of [PBS+2% (w/w) BSA] and added into a 96-well FACS reaction plate at 50 μL/well. A chimeric antibody (a sample to be tested) was added at 50 μL/well, and the plate was incubated on ice for 2 h. […] After the plate was centrifuged and washed 5 times with a PBST buffer, assay and analysis were performed by FACS (FACS CantoII, purchased from BD). Data analysis was performed by software (Flowjo) to obtain the mean fluorescence intensity (MFI) of the cells.
One may read the EC50 as the concentration at which the effect is half-maximal. For the molecule B1, it took 4.93 nM to reach a half-maximal effect (EC50) and the “Maximum mean fluorescence intensity” value came to 14000.
The corresponding values for B2 are 77.9 nM and 7620.
The corresponding values for B3 are 0.71 nM and 8990.
The like results for B4 were, in that order, 24.1 nM and 10800.
Take B5: the EC50 was 5.13 nM and the “Maximum mean fluorescence intensity” value stood at 13000.
For the molecule B6, the 50% effective concentration (EC50) amounted to 2.24 nM and the “Maximum mean fluorescence intensity” value amounted to 9830.

In a further assay the target is T1, human MSLN-FL-his protein. As to the kind of experiment: competitive ELISA; row F8-15.19.
Description: as §1, §2
Turning to B1, the competition rate stood at 100%.
Consider B2, for which the competition rate was found to be 99.2%.
As to B3, the competition rate is -15.7%.
The same measure, in the same setting: under B4 stands 99.5%; under B5, 99.8%.
In the case of B6, the competition rate stood at 98.5%.

Another assay deals with T3, human MSLN-R3 protein expressed on HEK293T cells (HEK293T-hMSLN-R3) (human, UniProt Q13421 487-606).
T3 construct: C-terminal limit uncertain
T3 sequence (Q13421 495-614): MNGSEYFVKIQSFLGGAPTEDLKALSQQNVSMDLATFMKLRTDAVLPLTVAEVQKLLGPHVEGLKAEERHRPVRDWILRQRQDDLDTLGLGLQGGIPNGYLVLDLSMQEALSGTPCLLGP
As to the kind of experiment: FACS on HEK293T-hMSLN-R3 cells.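 Also: chimeric antibodies incubated with cells on ice for 2 h, binding read by flow cytometry as mean fluorescence intensity.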
For the molecule B1, the “Maximum mean fluorescence intensity” value is 192 and the binding result is recorded as “no binding”.
The corresponding values for B2 are 120 and “no binding”.
The corresponding values for B3 are 279 and “no binding”.
The corresponding values for B4 are 131 and “no binding”.
Turning to B5, the “Maximum mean fluorescence intensity” value was determined as 98 and the binding result is reported as “no binding”.
For B6, the “Maximum mean fluorescence intensity” value was determined as 135 and the binding result is on record as “no binding”.

The next assay addresses T1, human MSLN-FL-his protein. Description: competitive ELISA; row F8-12.13.
Description: as §1, §2
Regarding B1, the competition rate turned out to be 98.9%.
B2: the competition rate was 98.7%.
On the same count and under the same terms, under B3 stands -23.2%; under B4, 97.2%.
For B5, the competition rate was found to be 97.3%.
Still for that read-out and setting: with B6 the figure was 93.7%.

In a further assay the target is T1, human MSLN-FL-his protein. Description: SPR (Biacore), antibody captured on Protein A chip. (SPR reads the build-up and loss of mass on a sensor chip optically.)
Usually Kd stands for a measure of binding affinity in units of concentration. Broadly, the koff is the first-order rate constant of dissociation. By kon is commonly meant a measure of how fast the partners come together. On to B1, for which binding was characterised by a dissociation constant (Kd) of 0.824 nM, the koff stood at 0.000599 s⁻¹ and the kon was 727000 M⁻¹ s⁻¹.
The corresponding values for B2 are 1.95 nM, 0.000234 s⁻¹ and 120000 M⁻¹ s⁻¹.
The corresponding values for B3 are 92.6 nM, 0.0215 s⁻¹ and 232000 M⁻¹ s⁻¹.
The like results for B4 were, in that order, 3.17 nM, 0.000876 s⁻¹ and 276000 M⁻¹ s⁻¹.
In the case of B5, the Kd stood at 1.98 nM, the koff is 0.00172 s⁻¹ and the kon came to 871000 M⁻¹ s⁻¹.
The corresponding values for B6 are 5.5 nM, 0.00296 s⁻¹ and 539000 M⁻¹ s⁻¹.
